According to the supplement of paper PMC10567573:

B1: TNXB (parent)
chain: FSEIRETSAKVNWMPPPSRADSFK
B2: PBXIP1 (parent)
chain: LQQLRARLQGLEADCVRGPDGVCL

Variants of: B1
Test: protein stability index of a GFP-peptide fusion (GPS, HEK-293T) (PSI 1-6); higher = more stable
Conditions: c terminus: a fixed tail appended
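Also: lentivirally expressed fusions sorted by FACS into six bins by GFP to DsRed ratio, PSI derived from sequencing read proportions per bin multiplied by bin number.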

Protein stability index, by site and new letter:
A9: P 3.33 | Q 3.72 | R 3.29 | S 3.75 | T 3.46 | V 2.35 | W 2.46 | Y 2.82
K10: A 3.92 | C 3 | D 4.01 | E 3.76 | F 2.09 | G 3.28 | H 3.32 | I 3.06 | L 3.29 | M 3.72 | N 2.94 | P 3.52 | Q 4.12 | R 3.67 | S 3.76 | T 3.96 | W 1.66 | Y 2.72
V11: A 3.77 | C 3.15 | D 4.12 | E 4 | F 2.97 | G 3.38 | H 3.5 | I 3.77 | K 4.2 | L 3.29 | M 3.17 | N 3.45 | P 4.03 | Q 3.65 | R 3.02 | S 3.87 | T 3.72 | W 2.73 | Y 2.7
N12: A 2.14 | D 3.83 | E 3.46 | F 2.96 | G 3.35 | H 2.71 | I 3.24 | K 2.88 | M 2.04 | P 3.17 | Q 3.04 | R 2.62 | S 3.38 | T 2.9 | V 1.95 | W 2.2 | Y 2.09
W13: A 4.11 | C 4.27 | D 4.8 | E 4.94 | F 3.57 | G 4.15 | H 3.61 | I 4.47 | K 4.55 | L 4 | M 3.98 | N 4.49 | P 4.43 | Q 4.23 | R 4.21 | S 3.83 | T 4.03 | V 4.17 | Y 4.06
M14: A 3.17 | C 2.63 | D 3.91 | E 4.11 | F 3.13 | G 3.63 | H 3.44 | I 3.11 | K 3.52 | L 3.31 | N 3.4 | Q 3.92 | R 4.26 | S 3.92 | V 2.96 | W 2.98 | Y 2.64
P15: A 3.51 | C 2.71 | D 3.85 | E 3.49 | F 2.46 | G 3.29 | H 3.42 | I 2.18 | K 3.33 | L 3.21 | M 3.27 | N 3.12 | Q 3.36 | R 3.21 | S 3.15 | T 3.38 | V 3.48 | W 2.56 | Y 2.22
P16: A 3.05 | C 3.14 | D 3.03 | E 3.52 | F 2.67 | G 2.8 | H 3.05 | I 3.15 | K 3.33 | L 3.02 | M 2.89 | N 2.89 | Q 3.23 | R 2.87 | S 3.69 | T 3.27 | V 3.41 | W 1.82 | Y 2.67
P17: A 3.65 | C 2.81 | D 3.84 | E 4.09 | F 3.19 | G 3.81 | H 3.08 | I 3.36 | K 3.43 | L 2.86 | M 2.97 | N 3.35 | Q 3.24 | R 3.3 | S 3.44 | T 3.99 | V 3.23 | W 2.79 | Y 2.67
S18: A 3.68 | C 3.37 | D 3.52 | E 3.67 | F 2.71 | G 3.51 | H 3.3 | I 2.46 | K 3.57 | L 2.75 | M 2.89 | N 3.18 | P 3.42 | Q 3.64 | R 3.43 | T 3.16 | V 3.32 | W 1.98 | Y 3.5
R19: A 3.52 | C 3.33 | D 4.25 | E 4.2 | F 2.49 | G 3.43 | H 3.15 | I 3.12 | K 3.6 | L 2.65 | M 3.12 | N 3.85 | P 3.7 | Q 3.6 | S 3.73 | T 3.71 | V 3.38 | W 2.18 | Y 3.19
A20: C 3.71 | D 3.88 | E 3.6 | F 2.73 | G 3.24 | H 3.45 | I 3.05 | K 3.8 | L 2.9 | M 2.79 | N 3.27 | P 3.13 | Q 3.27 | R 3.61 | S 3.5 | T 2.8 | V 2.46 | W 2.92 | Y 2.93
D21: A 3.17 | C 2.79 | E 3.79 | F 2.02 | G 3.52 | H 3.13 | I 3.05 | K 3.76 | L 3.06 | M 3.41 | N 3.34 | P 3.61 | Q 3.5 | R 3.52 | S 3.62 | T 2.6 | V 3.28 | W 2.45 | Y 3.01
S22: A 3.32 | C 3.29 | D 3.62 | E 3.69 | F 2.39 | G 2.97 | H 3.27 | I 3.38 | K 3.58 | L 3.22 | M 2.79 | N 3.38 | P 3.36 | Q 3.42 | R 3.95 | T 3.26 | V 2.94 | W 2.62 | Y 3.32
F23: A 4.04 | C 4.22 | D 4.56 | E 4.33 | G 3.24 | H 4.12 | I 3.5 | K 4.12 | L 3.91 | M 3.82 | N 4.1 | P 4.55 | Q 3.58 | R 4.44 | S 3.89 | T 4.06 | V 4.07 | W 3.32 | Y 3.09
K24: A 2.92 | C 2.94 | D 3.41 | E 3.21 | F 2.47 | G 3.35 | H 2.73 | I 2.44 | L 2.42 | M 2.48 | N 3.43 | P 3.14 | Q 3.33 | R 3.29 | S 3.29 | T 3.37 | V 2.63 | W 1.69 | Y 2.64

Variants of: B2
Test: as above
Conditions: c terminus: a fixed tail appended

Protein stability index, by site and new letter:
L1: A 3.3 | C 2.92 | E 5.29 | F 1.12 | H 3.85 | I 1.72 | K 3.5 | N 2.96 | P 4.19 | Q 3.83 | R 3.76 | S 4.1 | T 3.66 | V 2.52 | Y 2.22
Q2: C 3.55 | E 2.63 | F 3.06 | G 2.38 | I 1.3 | K 1.38 | L 1.41 | M 1.74 | N 3.27 | P 3.05 | R 1.82 | S 2.63 | T 2.61 | W 1.28 | Y 1.24
Q3: A 1.98 | E 2.58 | G 2.66 | I 1.68 | K 1.97 | L 1.93 | M 3.04 | N 2.36 | P 3.53 | R 3.08 | T 1.2 | Y 1.4
L4: C 1.96 | D 4.69 | E 3.75 | F 2.97
